Molecular target: the molecule itself
Assay: non-reducing SDS-PAGE with autoradiography; 1 µl of plasma of Cthrc1 null mice taken 30 min after intra-arterial injection of purified 125I-Cthrc1; SDS-PAGE under non-reducing conditions, autoradiography

B1: rat Cthrc1 with a C terminal myc/6×His tag, labeled with 125I (natural protein, UniProt Q8CG08 33-245, looked up)
chain: SENPKVKQKALIRQREVVDLYNGMCLQGPAGVPGRDGSPGANGIPGTPGIPGRDGFKGEKGECLRESFEESWTPNYKQCSWSSLNYGIDLGKIAECTFTKMRSNSALRVLFSGSLRLKCRNACCQRWYFTFNGAECSGPLPIEAIIYLDQGSPELNSTINIHRTSSVEGLCEGIGAGLVDVAIWVGTCSDYPKGDASTGWNSVSRIIIEELPK
modifications: labeled with 125I (iodination tubes); residues not stated
notes: Cthrc1 (collagen triple helix repeat containing 1), rat; secreted into the conditioned medium; also called 125I-Cthrc1; 125I-labeled Cthrc1
binding result: binds

— article PMC3466254, “Cthrc1, a Novel Circulating Hormone Regulating Metabolism” (PLoS ONE, 2012)
